Reference: the Immune Epitope Database (IEDB)
Blank lines part the entries; values can stand above or below the sequence they belong to.

Columns and labels:
HLA-A*69:01 [1] = assay: IEDB peptide-MHC binding, purified MHC/direct/fluorescence; filed as Kd, often an IC50 or EC50 that approximates it; ≥ and ≤ were set here for values at or beyond the usual limits of such assays
HLA-A*01:01 = assay: as above
HLA-A*31:01 = assay: as above
HLA-A*02:01 [2] = assay: as above
HLA-A*03:01 [3] = assay: as above
HLA-A*11:01 = assay: as above
HLA-B*44:02 = assay: as above
HLA-B*08:01 = assay: as above
HLA-B*07:02 = assay: as above
HLA-A*26:01 [4] = assay: as above
HLA-B*27:05 = assay: as above
HLA-B*35:01 = assay: as above
HLA-B*40:01 = assay: as above
HLA-B*58:01 = assay: as above
HLA-B*15:01 [5] = assay: as above
HLA-B*15:09 = assay: as above; details: source organism: Yellow fever virus
HLA-B*48:01 = assay: as above; details: source organism: Yellow fever virus
HLA-B*57:01 [6] = assay: as above; details: source organism: Yellow fever virus
HLA-B*46:01 [7] = assay: as above; details: source organism: Yellow fever virus
HLA-B*18:01 [8] = assay: as above; details: source organism: Yellow fever virus
HLA-A*69:01 [9] = assay: IEDB peptide-MHC binding, purified MHC/competitive/fluorescence; filed as Kd, often an IC50 or EC50 that approximates it; ≥ and ≤ were set here for values at or beyond the usual limits of such assays; details: source organism: Homo sapiens
HLA-A*02:19 [10] = assay: as above; details: source organism: Homo sapiens
HLA-A*02:11 [11] = assay: as above; details: source organism: Homo sapiens
HLA-A*02:01 [12] = assay: as above
HLA-B*15:17 = assay: as above; details: source organism: Homo sapiens
HLA-B*39:01 [13] = assay: as above; details: source organism: Homo sapiens
HLA-A*03:01 [14] = assay: as above; details: source organism: Homo sapiens
HLA-A*68:02 = assay: as above; details: source organism: Homo sapiens
HLA-A*24:03 [15] = assay: as above; details: source organism: Homo sapiens
HLA-B*57:01 [16] = assay: as above
HLA-A*02:16 [17] = assay: as above; details: source organism: Homo sapiens
HLA-B*15:01 [18] = assay: as above
HLA-B*46:01 [19] = assay: as above
HLA-A*02:03 [20] = assay: as above; details: source organism: Homo sapiens
HLA-A*26:01 [21] = assay: as above
HLA-B*18:01 [22] = assay: as above
HLA-A*02:12 [23] = assay: as above; details: source organism: Homo sapiens
HLA-B*27:03 = assay: as above
HLA-A*29:02 = assay: IEDB peptide-MHC binding, purified MHC/direct/fluorescence; filed as Kd, often an IC50 or EC50 that approximates it; ≥ and ≤ were set here for values at or beyond the usual limits of such assays; details: source organism: Limestone Canyon virus
HLA-A*02:19 [24] = assay: as above; details: source organism: Limestone Canyon virus
HLA-A*02:11 [25] = assay: as above; details: source organism: Limestone Canyon virus
HLA-B*39:01 [26] = assay: as above; details: source organism: Orthohantavirus sinnombreense
HLA-A*24:03 [27] = assay: as above; details: source organism: Limestone Canyon virus
HLA-A*02:16 [28] = assay: as above; details: source organism: Limestone Canyon virus
HLA-A*02:03 [29] = assay: as above; details: source organism: Limestone Canyon virus
HLA-A*02:12 [30] = assay: as above; details: source organism: Limestone Canyon virus
HLA-B*51:01 = assay: IEDB peptide-MHC binding, purified MHC/competitive/fluorescence; filed as Kd, often an IC50 or EC50 that approximates it; ≥ and ≤ were set here for values at or beyond the usual limits of such assays; details: source organism: Orthohantavirus sinnombreense
[31] = source organism: Vibrio parahaemolyticus
[32] = source organism: Haemophilus influenzae
[33] = source organism: Yellow fever virus
[34] = source organism: Orthohantavirus sinnombreense

Sequence: AFDWPELEF
Kd (HLA-A*69:01 [1]; [31]): ≥ 20 µM
Kd (HLA-A*01:01; [31]): ≥ 20 µM
Kd (HLA-A*31:01; [31]): ≥ 20 µM
Kd (HLA-A*02:01 [2]; [31]): ≥ 20 µM
Kd (HLA-A*03:01 [3]; [31]): ≥ 20 µM
Kd (HLA-A*11:01; [31]): ≥ 20 µM
Kd (HLA-B*44:02; [31]): ≥ 20 µM
Kd (HLA-B*08:01; [31]): ≥ 20 µM
Kd (HLA-B*07:02; [31]): ≥ 20 µM
Kd (HLA-A*26:01 [4]; [31]): ≥ 20 µM
Kd (HLA-B*27:05; [31]): ≥ 20 µM
Kd (HLA-B*35:01; source organism: Vibrio vulnificus): 0.0772 µM

Kd (HLA-A*69:01 [1]; [32]): ≥ 20 µM
Kd (HLA-B*40:01; [32]): ≥ 20 µM
Kd (HLA-B*58:01; [32]): ≥ 20 µM
Kd (HLA-A*01:01; [32]): ≥ 20 µM
Kd (HLA-A*31:01; [32]): ≥ 20 µM
Kd (HLA-A*02:01 [2]; [32]): ≥ 20 µM
Kd (HLA-A*03:01 [3]; [32]): ≥ 20 µM
Kd (HLA-A*11:01; [32]): ≥ 20 µM
Kd (HLA-B*08:01; [32]): 2.64 µM
Kd (HLA-B*15:01 [5]; [32]): ≥ 20 µM
Kd (HLA-B*07:02; [32]): 1.06 µM
Kd (HLA-A*26:01 [4]; [32]): 0.568 µM
Kd (HLA-B*27:05; [32]): ≥ 20 µM
Kd (HLA-B*35:01; [32]): 0.0509 µM
Sequence: EIKFNDITF

Sequence: FHKRDMRLL
Kd (HLA-A*69:01 [1]; [33]): ≥ 20 µM
Kd (HLA-B*15:09): 3 µM
Kd (HLA-B*40:01; [33]): ≥ 20 µM
Kd (HLA-B*58:01; [33]): ≥ 20 µM
Kd (HLA-A*01:01; [33]): ≥ 20 µM
Kd (HLA-A*31:01; [33]): ≥ 20 µM
Kd (HLA-A*02:01 [2]; [33]): ≥ 20 µM
Kd (HLA-A*03:01 [3]; [33]): ≥ 20 µM
Kd (HLA-A*11:01; [33]): ≥ 20 µM
Kd (HLA-B*44:02; [33]): ≥ 20 µM
Kd (HLA-B*48:01): ≥ 20 µM
Kd (HLA-B*57:01 [6]): ≥ 20 µM
Kd (HLA-B*15:01 [5]; [33]): ≥ 20 µM
Kd (HLA-B*46:01 [7]): ≥ 20 µM
Kd (HLA-B*07:02; [33]): ≥ 20 µM
Kd (HLA-B*18:01 [8]): ≥ 20 µM
Kd (HLA-B*27:05; [33]): ≥ 20 µM

Kd (HLA-A*69:01 [9]): ≥ 20 µM
Kd (HLA-A*02:19 [10]): ≥ 20 µM
Kd (HLA-A*02:11 [11]): ≥ 20 µM
Kd (HLA-A*02:01 [12]; source organism: Homo sapiens): ≥ 20 µM
Kd (HLA-B*15:17): ≥ 20 µM
Kd (HLA-B*39:01 [13]): ≥ 20 µM
Kd (HLA-A*03:01 [14]): ≥ 20 µM
Kd (HLA-A*68:02): ≥ 20 µM
Kd (HLA-A*24:03 [15]): ≥ 20 µM
Kd (HLA-B*57:01 [16]; source organism: Homo sapiens): ≥ 20 µM
Kd (HLA-A*02:16 [17]): ≥ 20 µM
Kd (HLA-B*15:01 [18]; source organism: Homo sapiens): ≥ 20 µM
Kd (HLA-B*46:01 [19]; source organism: Homo sapiens): ≥ 20 µM
Kd (HLA-A*02:03 [20]): ≥ 20 µM
Kd (HLA-A*26:01 [21]; source organism: Homo sapiens): ≥ 20 µM
Kd (HLA-B*18:01 [22]; source organism: Homo sapiens): ≥ 20 µM
Kd (HLA-A*02:12 [23]): ≥ 20 µM
Kd (HLA-B*27:03; source organism: Homo sapiens): ≥ 20 µM
Sequence: FWAWSVLRV

Sequence: YKSRCYVGL
Kd (HLA-A*29:02): ≥ 20 µM
Kd (HLA-A*02:19 [24]): ≥ 20 µM
Kd (HLA-A*02:11 [25]): ≥ 20 µM
Kd (HLA-B*39:01 [26]): 0.293 µM
Kd (HLA-A*03:01 [3]; source organism: Limestone Canyon virus): ≥ 20 µM
Kd (HLA-A*24:03 [27]): ≥ 20 µM
Kd (HLA-A*02:16 [28]): ≥ 20 µM
Kd (HLA-A*02:03 [29]): ≥ 20 µM
Kd (HLA-A*02:12 [30]): ≥ 20 µM
Kd (HLA-A*02:01 [12]; [34]): ≥ 20 µM
Kd (HLA-B*51:01): ≥ 20 µM
Kd (HLA-B*57:01 [16]; [34]): ≥ 20 µM
Kd (HLA-B*15:01 [18]; [34]): ≥ 20 µM
Kd (HLA-B*46:01 [19]; [34]): ≥ 20 µM
Kd (HLA-A*26:01 [21]; [34]): ≥ 20 µM
Kd (HLA-B*18:01 [22]; [34]): ≥ 20 µM
Kd (HLA-B*27:03; [34]): ≥ 20 µM
